± gives the standard deviation of the averaged measurements.

For 116 sequences, protein stability index results are on record in the supplement of paper PMC10724198.
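Also: PSI is a weighted mean of sequencing reads over stability bins, variants kept only with over 10 reads, mCherry proximal and sfGFP distal, peptide attached via GGGS linker.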

This series deals with Saccharomyces cerevisiae. As to the kind of experiment: protein stability index of tFT-peptide fusion (C-terminal peptide) (PSI (0-1 scale)); higher = more stable (slower turnover). The following applies: genetic background: wild type; temperature: 30 C.
As for SVLWLSSLRVPL, the protein stability index was determined as 0.7074 ± 0.0032.

Sequence SVPTSLCYSFSP registered a protein stability index of 0.5957 ± 0.0034.

The sequence SVRAHGDIQIPR yielded a protein stability index of 0.732 ± 0.073.

SVRHPPWDHRPP: the protein stability index turned out to be 0.571 ± 0.083.

SVSCVSRTVAPS came in with a protein stability index of 0.684 ± 0.027.

As for SVSTDTLQVYAI, the protein stability index is 0.658 ± 0.013.

The sequence SVSVFLMGLRGT returned a protein stability index of 0.694 ± 0.015.

With SVTDCTADHASV, the protein stability index is 0.653 ± 0.056.

In turn, SVTLYLTPPSLT showed a protein stability index of 0.67 ± 0.062.

SVTPSPPPSRPF returned a protein stability index of 0.678 ± 0.057.

Consider SVVSLLCQFLLG, for which the protein stability index is 0.673 ± 0.13.

Sequence SVWVCLASWCCG gave a protein stability index of 0.5487 ± 0.0038.

SVYLKLSECRSV gave a protein stability index of 0.6877 ± 0.0018.

SVYLPFPSGLLL yielded a protein stability index of 0.728 ± 0.073.

Sequence SWTEPISNTVLP yielded a protein stability index of 0.77 ± 0.034.

In the case of SYGWYRVRLLDC, the protein stability index amounted to 0.57 ± 0.088.

In turn, SYLWRINVSGCV gave a protein stability index of 0.6955 ± 0.0013.

SYPTRSKSAYSL: the protein stability index was determined as 0.652 ± 0.059.

SYSSILPPLSSA yielded a protein stability index of 0.686 ± 0.022.

For the sequence SYVLIYAPLSSL, the protein stability index was 0.661 ± 0.036.

With SYVYMIQRANAV, the protein stability index is 0.5609 ± 0.004.

Sequence TAATLVYKQNQK showed a protein stability index of 0.66 ± 0.12.

Sequence TAKGSSIMCVKI showed a protein stability index of 0.729 ± 0.05.

As to TAPPPSQTPPRT, the protein stability index came to 0.684 ± 0.0076.

Consider TAPSGIYFSLPL, for which the protein stability index was 0.66 ± 0.054.

For the sequence TARSTSPHHIPR, the protein stability index is 0.835 ± 0.22.

The sequence TASAGLVAAATI registered a protein stability index of 0.668 ± 0.034.

As for TCPPAPSTGPST, the protein stability index was 0.648 ± 0.0073.

As for TCTIQSEDFHEI, the protein stability index stood at 0.707 ± 0.063.

Consider TDNIRIERYKEQ, for which the protein stability index was found to be 0.689 ± 0.064.

The sequence TDWCPQSCVCSL yielded a protein stability index of 0.647 ± 0.051.

TDYSSPKTSLSR showed a protein stability index of 0.668 ± 0.056.

Regarding TEEVRVRVQTEL, the protein stability index amounted to 0.663 ± 0.035.

Consider TESGVCWCRREV, for which the protein stability index was found to be 0.685 ± 0.04.

Consider TEVWERGKNVGE, for which the protein stability index is 0.635 ± 0.03.

Turning to TEWIRGTAVNSS, the protein stability index came out at 0.701 ± 0.023.

As to TEYRRRPNETAM, the protein stability index stood at 0.705 ± 0.037.

In turn, TFIKMEKKKDGG displayed a protein stability index of 0.663 ± 0.034.

TFLMEMVPRLFI: the protein stability index was found to be 0.664 ± 0.036.

The sequence TFLPPTTSPYVL came in with a protein stability index of 0.738 ± 0.052.

The sequence TFPPSAPQSSCS displayed a protein stability index of 0.7041 ± 0.0027.

With TFPRRCILNIQI, the protein stability index was determined as 0.635 ± 0.024.

For TFQMAYHSRTAV, the protein stability index is 0.637 ± 0.13.

Regarding TFREMPESIGNG, the protein stability index is 0.654 ± 0.047.

For the sequence TFSFPSPAPHSC, the protein stability index was determined as 0.781 ± 0.033.

As for TFSHRVICTGND, the protein stability index worked out at 0.733 ± 0.072.

On to TFSPPLSSPPGP, for which the protein stability index turned out to be 0.706 ± 0.032.

In the case of TGEVSTRVGQRE, the protein stability index came out at 0.66 ± 0.07.

TGIDLPHFVSLF: the protein stability index came to 0.658 ± 0.088.

TGKWRSFQAYYY had a protein stability index of 0.667 ± 0.039.

The sequence TGNSPSRTGNGI gave a protein stability index of 0.647 ± 0.018.

TGSKKKKVEIEM yielded a protein stability index of 0.679 ± 0.048.

For TGSRHDLDGSMK, the protein stability index was 0.679 ± 0.017.

As for TGWRFVRSKGGS, the protein stability index was found to be 0.741 ± 0.045.

THCSGAGPPSPP returned a protein stability index of 0.689 ± 0.068.

THKGAPTCRSAR returned a protein stability index of 0.6723 ± 0.0037.

For the sequence THLASTESVVRP, the protein stability index was 0.69 ± 0.033.

In turn, THPPATSPPPYP returned a protein stability index of 0.6631 ± 0.0057.

Turning to THTPPPSPLTLP, the protein stability index was determined as 0.671 ± 0.021.

Sequence THTTIQKTNQNE had a protein stability index of 0.703 ± 0.026.

TIASGCTWSPGH: the protein stability index came to 0.645 ± 0.013.

Regarding TIDACFHSDWGC, the protein stability index is 0.782 ± 0.11.

TIELNLPPSVVR: the protein stability index amounted to 0.642 ± 0.037.

For TIGPVRSGHVLA, the protein stability index came to 0.6807 ± 0.0055.

The sequence TIIRQRHYAPNL returned a protein stability index of 0.6771 ± 0.0056.

Take TIMRGEPGQSHF: the protein stability index turned out to be 0.741 ± 0.089.

As to TIPSSSQVPIGG, the protein stability index was determined as 0.641 ± 0.021.

In turn, TKEEDKNEGRRR registered a protein stability index of 0.662 ± 0.055.

For TKFSSPPLVRTS, the protein stability index is 0.71 ± 0.031.

In turn, TKKNKLRQKKTE yielded a protein stability index of 0.6457 ± 0.0028.

Regarding TKLKKKGTKKKR, the protein stability index turned out to be 0.662 ± 0.018.

Turning to TKPTRPVSPTHL, the protein stability index was found to be 0.693 ± 0.12.

In the case of TKQSKRKHESRT, the protein stability index was 0.671 ± 0.044.

Take TKRLLPPRTVAI: the protein stability index was found to be 0.696 ± 0.066.

The sequence TKRRKKIPENRI returned a protein stability index of 0.6649 ± 0.0049.

Regarding TKSPYLTVNETA, the protein stability index was 0.686 ± 0.055.

With TKSRKWEERENQ, the protein stability index amounted to 0.682 ± 0.013.

Sequence TKTKKKTQEGSR registered a protein stability index of 0.739 ± 0.1.

The sequence TLFSVGSDAMIV displayed a protein stability index of 0.708 ± 0.041.

As for TLFTRRSIMKGN, the protein stability index turned out to be 0.62 ± 0.068.

In turn, TLGLTLSAFALT gave a protein stability index of 0.635 ± 0.043.

In turn, TLLAALIRFDAV returned a protein stability index of 0.691 ± 0.041.

Turning to TLLAPPAPTPAG, the protein stability index came out at 0.684 ± 0.036.

With TLLPPACFPTPP, the protein stability index came out at 0.717 ± 0.017.

Consider TLPARPSVPLPP, for which the protein stability index was determined as 0.629 ± 0.06.

The sequence TLPSPPSPSPRP displayed a protein stability index of 0.679 ± 0.085.

Regarding TLQKKLTVNTKK, the protein stability index is 0.738 ± 0.11.

Consider TLRPKASPPAAL, for which the protein stability index was determined as 0.642 ± 0.021.

TLRTPGFSSSLH returned a protein stability index of 0.721 ± 0.025.

Sequence TLSPPLPPPSPS gave a protein stability index of 0.66129 ± 0.00029.

In the case of TLSSLVGACLYV, the protein stability index came out at 0.614 ± 0.038.

As for TNGVNHIDAHGQ, the protein stability index was determined as 0.645 ± 0.018.

The sequence TNKKEPTMTRKK gave a protein stability index of 0.72528 ± 0.00042.

Turning to TNNLRLKVIGPK, the protein stability index was 0.653 ± 0.021.

In turn, TNQITRHELTTY gave a protein stability index of 0.599 ± 0.043.

TNRNGQQRWEKG gave a protein stability index of 0.64 ± 0.0078.

In turn, TNRRSRLQVSSN came in with a protein stability index of 0.635 ± 0.08.

The sequence TPAMPRNPTDDS registered a protein stability index of 0.651 ± 0.0068.

On to TPAPLLPRRTPP, for which the protein stability index worked out at 0.734 ± 0.073.

In the case of TPCSRMRPSLLF, the protein stability index was 0.709 ± 0.11.

For the sequence TPKTTGRPCDRT, the protein stability index is 0.69 ± 0.0098.

TPLNPDSLDRPT displayed a protein stability index of 0.657 ± 0.0097.

The sequence TPLNPLYCPPTP had a protein stability index of 0.6384 ± 0.0061.

On to TPLSPPALPPPS, for which the protein stability index is 0.659 ± 0.074.

TPLVLTLLTRRP returned a protein stability index of 0.709 ± 0.054.

In the case of TPPACTRIPPAN, the protein stability index worked out at 0.777 ± 0.12.

TPPLPPPPPPIH returned a protein stability index of 0.7413 ± 0.0029.

In turn, TPPPPAPSPPPP yielded a protein stability index of 0.761 ± 0.059.

Sequence TPPPSLPPPPPP had a protein stability index of 0.627 ± 0.07.

In the case of TPPRHTRTSQTV, the protein stability index was 0.648 ± 0.0083.

As for TPRPRRNCGPGP, the protein stability index worked out at 0.717 ± 0.2.

For the sequence TPSAPPPTHPYP, the protein stability index was 0.684 ± 0.036.

As to TPSPPTLHPPPP, the protein stability index stood at 0.691 ± 0.023.

The sequence TPSRLPPPLRSP yielded a protein stability index of 0.703 ± 0.004.

For the sequence TPTRPLSSALRL, the protein stability index was 0.697 ± 0.05.

In the case of TPVAPGLSPPPL, the protein stability index turned out to be 0.659 ± 0.066.
